Assay results published in patent US20260356970 (published 2026).

T1: EMR2 (human, UniProt Q9UHX3)
T1 chain: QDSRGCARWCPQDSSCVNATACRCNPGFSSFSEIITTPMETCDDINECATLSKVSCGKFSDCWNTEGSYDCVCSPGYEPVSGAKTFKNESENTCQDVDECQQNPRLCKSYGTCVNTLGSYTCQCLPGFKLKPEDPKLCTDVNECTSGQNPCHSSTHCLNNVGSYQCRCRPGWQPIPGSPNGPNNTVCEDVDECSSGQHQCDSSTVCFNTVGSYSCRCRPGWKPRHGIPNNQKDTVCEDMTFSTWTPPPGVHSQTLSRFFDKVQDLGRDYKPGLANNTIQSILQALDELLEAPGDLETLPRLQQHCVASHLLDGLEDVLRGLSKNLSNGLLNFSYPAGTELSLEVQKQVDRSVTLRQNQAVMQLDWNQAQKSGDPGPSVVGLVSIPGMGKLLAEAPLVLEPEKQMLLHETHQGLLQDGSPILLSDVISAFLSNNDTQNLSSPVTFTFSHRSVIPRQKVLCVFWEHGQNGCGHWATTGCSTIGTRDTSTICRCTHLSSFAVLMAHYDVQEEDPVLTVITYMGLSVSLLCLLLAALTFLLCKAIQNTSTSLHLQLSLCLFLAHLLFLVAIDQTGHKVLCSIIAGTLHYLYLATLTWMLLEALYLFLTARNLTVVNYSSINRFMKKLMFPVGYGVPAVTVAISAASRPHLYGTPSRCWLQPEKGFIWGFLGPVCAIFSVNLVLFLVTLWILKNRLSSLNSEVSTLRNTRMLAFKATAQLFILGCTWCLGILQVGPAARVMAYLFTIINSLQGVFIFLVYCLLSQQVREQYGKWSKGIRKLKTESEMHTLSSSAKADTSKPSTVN

B1: EMR2-1-scFv (antibody, V domains shown)
VH: QVQLVQSGAEVKKPGASVKVSCKASGYTFTSYGISWVRQAPGQGLEWMGWISAYNGNTNYAQKLQGRVTMTTDTSTSTAYMELRSLRSDDTAVYYCARGYAFDIWGQGTMVTVSS
VL: SYELTQPLSVSVALGQTARITCGGNNIGSKNVHWYQQKPGQAPVLVIYRDSNRPSGIPERFSGSNSGNTATLTINRAQAGDEADYYCQVWDSSTVVFGGGTELTVL
B2: EMR2-2-scFv (antibody, V domains shown)
VH: QVQPVESGGGLVQPGGSLRLSCAASGFTFSSYEMNWVRQAPGKGLEWVSAISGGGGSTYYADSVKGRFTISRDNSKNTLYLQMNSLRAEDTAVYYCAKSGRGWAAAGRWGQGTLVTVSS
VL: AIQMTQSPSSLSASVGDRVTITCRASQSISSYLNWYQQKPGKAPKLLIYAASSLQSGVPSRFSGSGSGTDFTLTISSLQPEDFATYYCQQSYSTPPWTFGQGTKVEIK
B3: EMR2-3-VH (designed binder)
chain: QVQLVQSGGGLVQPGGSLRLSCAASDFSFDSYEMSWVRQAPGKGLEWVSSISASGGRTFYADSVKGRFTISRDNSKNTLYLQMNTLRAEDTALYYCARHPGIMGQGTLVTVSS

Target: T1, EMR2
Experiment: ELISA

EC50, < 1 nM:
B1
B2
B3
